From US20230124973

T1: hTERT (191-306), purified
T1 chain: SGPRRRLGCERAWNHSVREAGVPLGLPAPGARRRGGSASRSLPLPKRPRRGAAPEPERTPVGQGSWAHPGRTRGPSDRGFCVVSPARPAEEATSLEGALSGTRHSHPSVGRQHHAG

B1: IKK2 (2-664) (protein)
chain: SWSPSLTTQTCGAWEMKERLGTGGFGNVIRWHNQETGEQIAIKQCRQELSPRNRERWCLEIQIMRRLTHPNVVAARDVPEGMQNLAPNDLPLLAMEYCQGGDLRKYLNQFENCCGLREGAILTLLSDIASALRYLHENRIIHRDLKPENIVLQQGEQRLIHKIIDLGYAKELDQGSLCTSFVGTLQYLAPELLEQQKYTVTVDYWSFGTLAFECITGFRPFLPNWQPVQWHSKVRQKSEVDIVVSEDLNGTVKFSSSLPYPNNLNSVLAERLEKWLQLMLMWHPRQRGTDPTYGPNGCFKALDDILNLKLVHILNMVTGTIHTYPVTEDESLQSLKARIQQDTGIPEEDQELLQEAGLALIPDKPATQCISDGKLNEGHTLDMDLVFLFDNSKITYETQISPRPQPESVSCILQEPKRNLAFFQLRKVWGQVWHSIQTLKEDCNRLQQGQRAAMMNLLRNNSCLSKMKNSMASMSQQLKAKLDFFKTSIQIDLEKYSEQTEFGITSDKLLLAWREMEQAVELCGRENEVKLLVERMMALQTDIVDLQRSPMGRKQGGTLDDLEEQARELYRRLREKPRDQRTEGDSQEMVRLLLQAIQSFEKKVRVIYTQLSKTVVCKQKALELLPKVEEVVSLMNEDEKTVVRLQEKRQKELWNLLKIACSK

Tests used:
[1] = tested on: hTERT (191-306), purified
[2] = biological target: T1, hTERT (191-306), purified

Molecule	in vitro kinase assay; phosphorylation site found by mass spectrometry and by Western blotting with Anti-hTERT pT249 [1]	in vitro kinase assay (negative control); phosphorylation sites found by mass spectrometry [2]
CDK1-cyclin B (New England Biolabs)	pT249 was detected from only a sample treated with CDK1	
B1		pS206, pS274, pT283 and the like were detected from a sample treated with IKK2
